This test concerns the target FgSreA, 6xHis-tagged recombinant protein (Fusarium graminearum PH-1). Briefly: MST. The conditions noted are these: natural protein.

As for “FgGrx4, 6xHis-tagged recombinant protein”, the EC50 came out at 17.7 µM and the Kd came out at 0.0001 µM.

In general, EC50 refers to the midpoint of the concentration-response curve. What is called Kd is the free concentration of one partner at which half of the binding sites on the other are occupied at equilibrium, for simple one-to-one binding.
